Reference: the RNAGym collection of RNA variant scans (doi:10.7554/elife.80360)

B1: CPEB3 Ribozyme (parent)
chain: GGGGGCCACAGCAGAAGCGUUCACGUCGCGGCCCCUGUCAGAUUCUGGUGAAUCUGCGAAUUCUGCUGU

Variants of: B1
Assay: self-cleavage, relative activity (ratio to wild type); higher = more cleavage; co-transcriptional

| Variant | self-cleavage |
| --- | --- |
| A10G G50U | 0.87 |
| A10G G56A | 0.784 |
| A10G G56C | 0.473 |
| A10G G56U | 0.567 |
| A10G G58A | 0.969 |
| A10G G58C | 0.888 |
| A10G G65C | 0.288 |
| A10G G68A | 0.943 |
| A10G G68C | 0.941 |
| A10G G68U | 0.917 |
| A10G U20C | 0.115 |
| A10G U20G | 0.135 |
| A10G U21A | 0.83 |
| A10G U21C | 0.619 |
| A10G U21G | 0.39 |
| A10G U36A | 0.117 |
| A10G U36C | 0.761 |
| A10G U36G | 0.155 |
| A10G U43A | 0.455 |
| A10G U43C | 0.651 |
| A10G U43G | 0.344 |
| A10G U44A | 0.702 |
| A10G U44C | 0.498 |
| A10G U46C | 0.907 |

| Variant | self-cleavage |
| --- | --- |
| A10G U46G | 0.901 |
| A10G U49A | 0.932 |
| A10G U49C | 0.99 |
| A10G U49G | 0.907 |
| A10G U53G | 0.646 |
| A10G U55A | 0.407 |
| A10G U55C | 0.407 |
| A10G U61C | 0.291 |
| A10G U61G | 0.468 |
| A10G U62A | 0.578 |
| A10G U62G | 0.448 |
| A10G U64A | 0.33 |
| A10G U64C | 0.406 |
| A10G U67A | 0.847 |
| A10G U67G | 0.757 |
| A10G U69A | 0.981 |
| A10G U69C | 1.06 |
| A10G U69G | 0.978 |
| A10U | 1 |
| A10U A13C | 0.808 |
| A10U A15G | 0.999 |
| A10U A15U | 0.772 |
| A10U A16C | 0.281 |
| A10U A23C | 0.968 |

| Variant | self-cleavage |
| --- | --- |
| A10U A23G | 0.983 |
| A10U A23U | 1 |
| A10U A40C | 0.516 |
| A10U A40U | 0.911 |
| A10U A42G | 0.899 |
| A10U A42U | 0.999 |
| A10U A51C | 0.962 |
| A10U A52C | 1 |
| A10U A52G | 1.03 |
| A10U A59C | 0.778 |
| A10U A59U | 0.879 |
| A10U A60C | 0.384 |
| A10U A60U | 0.58 |
| A10U C12G | 0.859 |
| A10U C18G | 0.182 |
| A10U C22G | 0.174 |
| A10U C22U | 0.436 |
| A10U C24A | 0.796 |
| A10U C24G | 0.569 |
| A10U C24U | 0.82 |
| A10U C27G | 0.17 |
| A10U C29G | 0.431 |
| A10U C29U | 0.361 |
| A10U C32A | 0.93 |

| Variant | self-cleavage |
| --- | --- |
| A10U C32G | 0.64 |
| A10U C32U | 1.02 |
| A10U C33A | 0.977 |
| A10U C33G | 0.922 |
| A10U C33U | 0.971 |
| A10U C34A | 0.983 |
| A10U C34G | 1.01 |
| A10U C35U | 0.976 |
| A10U C39A | 0.84 |
| A10U C39G | 0.913 |
| A10U C39U | 0.984 |
| A10U C45A | 0.998 |
| A10U C45U | 0.958 |
| A10U C54U | 1.01 |
| A10U C57G | 0.307 |
| A10U C57U | 0.369 |
| A10U C63A | 0.825 |
| A10U C63G | 0.591 |
| A10U C66U | 1.01 |
| A10U G11U | 0.908 |
| A10U G14A | 0.622 |
| A10U G14C | 0.482 |
| A10U G17C | 0.168 |
| A10U G17U | 0.512 |

| Variant | self-cleavage |
| --- | --- |
| A10U G19A | 0.15 |
| A10U G19C | 0.119 |
| A10U G19U | 0.589 |
| A10U G25C | 0.155 |
| A10U G25U | 0.162 |
| A10U G30A | 0.922 |
| A10U G30C | 0.992 |
| A10U G31C | 0.262 |
| A10U G37A | 0.322 |
| A10U G37U | 0.203 |
| A10U G41A | 0.844 |
| A10U G41U | 0.86 |
| A10U G47A | 1.03 |
| A10U G47C | 0.991 |
| A10U G47U | 0.962 |
| A10U G48U | 1 |
| A10U G50A | 0.978 |
| A10U G50C | 1 |
| A10U G56C | 0.84 |
| A10U G58C | 1.02 |
| A10U G58U | 0.984 |
| A10U G65C | 0.627 |
| A10U G68C | 1.05 |
| A10U U20A | 0.122 |

| Variant | self-cleavage |
| --- | --- |
| A10U U20C | 0.232 |
| A10U U20G | 0.19 |
| A10U U21A | 1 |
| A10U U21C | 0.912 |
| A10U U21G | 0.581 |
| A10U U26A | 0.917 |
| A10U U26C | 0.986 |
| A10U U36A | 0.291 |
| A10U U38A | 0.959 |
| A10U U38C | 0.99 |
| A10U U38G | 0.154 |
| A10U U44C | 0.949 |
| A10U U44G | 0.928 |
| A10U U46G | 1.01 |
| A10U U49A | 0.989 |
| A10U U49C | 1 |
| A10U U49G | 1.01 |
| A10U U53A | 0.981 |
| A10U U53G | 0.902 |
| A10U U55A | 0.888 |
| A10U U55G | 0.888 |
| A10U U61C | 0.781 |
| A10U U62G | 0.896 |
| A10U U64C | 0.778 |

| Variant | self-cleavage |
| --- | --- |
| A10U U67C | 1 |
| A10U U69A | 1.02 |
| G11A | 0.932 |
| G11A A13U | 0.186 |
| G11A A15G | 0.807 |
| G11A A15U | 0.574 |
| G11A A16C | 0.0873 |
| G11A A16G | 0.575 |
| G11A A16U | 0.352 |
| G11A A23C | 0.775 |
| G11A A23G | 0.792 |
| G11A A23U | 0.855 |
| G11A A40C | 0.14 |
| G11A A42C | 0.544 |
| G11A A42G | 0.586 |
| G11A A42U | 0.548 |
| G11A A51G | 0.865 |
| G11A A51U | 0.847 |
| G11A A52C | 0.865 |
| G11A A52U | 0.837 |
| G11A A59U | 0.41 |
| G11A A60G | 0.434 |
| G11A A60U | 0.323 |
